The results in this text go back to patent publication US20240093159A1 (UNIVERSITY OF DUNDEE, published 2024).

Assay [1] addresses T1, commercially sourced Im7 linked to Sepharose (UniProt Q03708 1-87, linked to Sepharose resin).
T1 construct: also called Im7-Sepharose; Im7-agarose
T1 sequence: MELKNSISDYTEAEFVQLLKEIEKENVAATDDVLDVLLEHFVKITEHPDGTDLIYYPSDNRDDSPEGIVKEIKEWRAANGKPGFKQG
As to the kind of experiment: E. coli cytosol incubated with Im7-Sepharose, extensive washing, TEV release, SDS-PAGE.

The target in assay [2] is T2, Human IL17RA protein (SinoBiological) (human, UniProt Q96F46 33-320).
T2 construct: Coated on ELISA plates at 0.25 ug/well; also called IL17RA receptor
T2 sequence (looked up): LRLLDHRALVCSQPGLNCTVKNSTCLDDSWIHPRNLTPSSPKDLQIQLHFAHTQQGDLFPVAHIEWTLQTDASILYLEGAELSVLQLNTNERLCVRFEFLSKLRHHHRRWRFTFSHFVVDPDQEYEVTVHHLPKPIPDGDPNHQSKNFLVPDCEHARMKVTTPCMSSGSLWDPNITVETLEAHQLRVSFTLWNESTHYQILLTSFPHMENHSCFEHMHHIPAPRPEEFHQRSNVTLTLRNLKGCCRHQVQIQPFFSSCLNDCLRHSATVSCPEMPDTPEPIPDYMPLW
Briefly: receptor binding ELISA, IL17RA coated at 0.25 ug/well. For orientation: In an ELISA, binding on a coated surface is turned into a signal by an enzyme label.

B1: ColE7-IL33 fusion (Colicin E7 catalytic domain, linker, TEV site, murine IL-33 C-terminal fragment) (other)
chain: ESKRNKPGKATGKGKPVNNKWLNNAGKDLGSPVPDRIANKLRDKEFKSFDDFRKKFWEEVSKDPELSKQFSRNNNDRMKVGKAPKTRTQDVSGKATSFALHHEKPISQNGGVYDMDNISVVTPKRAIDIHRGKSGGGSSGSGENLYFQGSSIQGTSLLTQSPASLSTYNDQSVSFVLENGCYVINVDKSGKDQEQDQVLLRYYKSPCPASQSGDGVDGKKLMVNMSPIKDTDIWLHANDKDYSVELQRGDVSPPEQAFFVLHKKSSDFVSFECKNLPGTYIGVKDNQLALVEEKDESCNNIMFKLSKI
notes: also called ColE7-1L33; ColicinE7-IL33
B1: the binding result in assay [1] is given as “binds”.

B2: IL33 purified on Im7-Sepharose and released from ColE7 by TEV protease (ligand)
chain: GSSIQGTSLLTQSPASLSTYNDQSVSFVLENGCYVINVDKSGKDQEQDQVLLRYYKSPCPASQSGDGVDGKKLMVNMSPIKDTDIWLHANDKDYSVELQRGDVSPPEQAFFVLHKKSSDFVSFECKNLPGTYIGVKDNQLALVEEKDESCNNIMFKLSKI
In the case of B2, in assay [2], the binding result was “no binding”.
